B1: wild-type PAP257–273 [human] / itself (parent)
chain: RLQGGVLVNEILNHMKR

Variants of: B1
Experiment: ThT assay (amyloid fibril formation, self-assembly)
Conditions: with itself; peptide 3 mg/ml, agitated at 1400 rpm at 37 °C for 48 h; parent: 5.5e+03; read off a plot

Variant | response
RAQGGVLVNEILNHMKR | 7800
RLQGGVLVNEIANHMKR | 11000
RLQGGVLVNEILNHAKR | 1400

Continued, values first:

response | Variant
8300 | RLQGGVLVNEILNHMKA
5100 | RLAGGVLVNEILNHMKR
200 | RLQGGVLANEILNHMKR

— publication PMC6048764, “Myricetin antagonizes semen-derived enhancer of viral infection (SEVI) formation and influences its infection-enhancing activity” (Retrovirology, 2018)
